# Values quoted from earlier work in PMC4769028.
# Biological target: CusA (Escherichia coli) (UniProt P38054)
# Experiment: ITC
# UniProt P38054, sequence (P38054 whole entry): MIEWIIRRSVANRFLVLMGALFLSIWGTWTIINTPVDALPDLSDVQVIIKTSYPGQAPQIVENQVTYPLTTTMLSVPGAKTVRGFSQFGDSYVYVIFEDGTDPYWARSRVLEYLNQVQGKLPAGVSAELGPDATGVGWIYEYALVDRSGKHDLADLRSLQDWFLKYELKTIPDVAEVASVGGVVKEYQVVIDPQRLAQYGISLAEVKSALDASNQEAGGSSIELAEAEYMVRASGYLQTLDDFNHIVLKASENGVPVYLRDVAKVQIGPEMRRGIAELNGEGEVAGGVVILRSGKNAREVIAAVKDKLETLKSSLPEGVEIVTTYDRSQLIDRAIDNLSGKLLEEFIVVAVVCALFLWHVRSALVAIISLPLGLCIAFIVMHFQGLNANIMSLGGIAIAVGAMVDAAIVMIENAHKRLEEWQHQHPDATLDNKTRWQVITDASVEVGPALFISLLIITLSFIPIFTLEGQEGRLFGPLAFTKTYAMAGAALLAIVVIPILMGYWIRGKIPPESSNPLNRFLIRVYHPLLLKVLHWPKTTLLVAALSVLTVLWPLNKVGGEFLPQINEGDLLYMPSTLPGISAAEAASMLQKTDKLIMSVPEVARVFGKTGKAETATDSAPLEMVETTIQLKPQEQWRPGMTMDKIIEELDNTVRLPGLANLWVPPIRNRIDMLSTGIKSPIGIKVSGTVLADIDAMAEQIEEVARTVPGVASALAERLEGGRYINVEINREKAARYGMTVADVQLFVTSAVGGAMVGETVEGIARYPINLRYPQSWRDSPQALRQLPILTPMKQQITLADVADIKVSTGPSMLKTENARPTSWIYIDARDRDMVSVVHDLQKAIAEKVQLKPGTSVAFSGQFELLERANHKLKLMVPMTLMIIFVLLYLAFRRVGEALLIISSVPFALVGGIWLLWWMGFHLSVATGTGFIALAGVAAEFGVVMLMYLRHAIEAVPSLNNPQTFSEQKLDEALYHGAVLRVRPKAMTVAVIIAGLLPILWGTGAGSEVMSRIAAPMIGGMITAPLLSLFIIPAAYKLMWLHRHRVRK
substance,measurement,value
CusB (from UniProt P77239),Kd,5.1 µM
